Results: US20260274955A1 (JANUX THERAPEUTICS, published 2026)

Target: T1, Anti-CD28 Fab (SEQ ID NOs: 202, 203)
T1 construct: biotinylated and captured on neutravidin coated plates in the phage ELISA
Assay: phage ELISA, Fab on plate;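 note: crude clonal phage supernatants added to wells pretreated with blocking buffer with or without CD28 antigen, then bound phage read out via HRP-linked anti-M13 antibody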
Protocol: After panning, phage infected bacteria were plated out and colonies picked into 96 well blocks. Clonal phage was then amplified and separated from bacterial cells via centrifugation.
Clonal phage were harvested as crude supernatants and screened via standard ELISAs. […] Prior to the addition of clonal phage, wells were incubated with blocking buffer and CD28 antigen or blocking buffer alone. Without washing or aspirating, clonal phage supernatants were then added to the wells and incubated for a short time. Wells were then washed followed by detection of bound phage using a horse radish conjugated anti-M13 antibody. Clonal phage of interest were then sent for sequence analysis.

T1 sequence (VH, as listed by the source, chain 1 of 2): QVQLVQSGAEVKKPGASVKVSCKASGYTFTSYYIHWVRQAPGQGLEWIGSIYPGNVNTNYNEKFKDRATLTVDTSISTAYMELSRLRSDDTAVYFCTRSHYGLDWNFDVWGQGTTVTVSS
T1 sequence (VL, as listed by the source, chain 2 of 2): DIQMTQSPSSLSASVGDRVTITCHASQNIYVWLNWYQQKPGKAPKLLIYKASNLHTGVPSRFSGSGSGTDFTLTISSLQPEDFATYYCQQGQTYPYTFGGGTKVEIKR

Binder | Anti-CD28 Fab (SEQ ID NOs: 202, 203) signal
YCVGHSEQYMAKCL [Phage-726] | 1.13

Target: T2, anti-CD28 Fab (SEQ ID NOs: 202, 203)
T2 construct: biotinylated and captured on neutravidin coated plates in the phage ELISA
T2 sequence (VH, as listed by the source, chain 1 of 2): as the sequence (VH, as listed by the source, chain 1 of 2) above
T2 sequence (VL, as listed by the source, chain 2 of 2): as the sequence (VL, as listed by the source, chain 2 of 2) above
Assay: phage binding ELISA; biotinylated Fab on neutravidin plate;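 note: clonal phage supernatants added to Fab wells pretreated with CD28 antigen or with blocking buffer only, bound phage read out via HRP-linked anti-M13 antibody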
Protocol: Clonal phage were harvested as crude supernatants and screened via standard ELISAs. […] Prior to the addition of clonal phage, wells were incubated with blocking buffer and CD28 antigen or blocking buffer alone. Without washing or aspirating, clonal phage supernatants were then added to the wells and incubated for a short time. Wells were then washed followed by detection of bound phage using a horse radish conjugated anti-M13 antibody.

Binder | Anti-CD28 Fab (SEQ ID NOs: 202, 203) signal
YCDGHSAEYMEKCI [Phage-356] | 1.83
YCDGHLPLYMHKCL [Phage-357] | 1.82
YCEGHAPQYLNKCL [Phage-358] | 1.82
YCDGHAREYMTKCL [Phage-359] | 1.82
YCDGHTEEYMDKCL [Phage-360] | 1.82
YCDGHSSMYMAKCL [Phage-361] | 1.82
YCEGHSAEFMTKCL [Phage-363] | 1.81
YCDGHSPQYMQKCL [Phage-390] | 1.76
YCDGHVEPYLSKCL [Phage-393] | 1.76
YCDGHKPQYMEKCL [Phage-394] | 1.76
YCDGHIGEYMVKCL [Phage-395] | 1.76
YCEGHLAQYMWKCL [Phage-300] | 1.91
YCEGHLAQYMNKCL [Phage-396] | 1.76
YCDGHVQEYMQKCL [Phage-397] | 1.76
YCHGHLQEYMAKCL [Phage-398] | 1.76
YCDGHAPVYMAKCL [Phage-400] | 1.75
YCDGHHIEYLAKCL [Phage-402] | 1.75
YCDGHSLQYMDKCL [Phage-405] | 1.75
YCDGHYPEYMSKCL [Phage-406] | 1.75
YCDGHAEKYMQKCL [Phage-408] | 1.74
YCEGHAIEYLAKCL [Phage-409] | 1.74
YCDGHLEEYMVKCM [Phage-413] | 1.73
YCEGHLQTYMAKCL [Phage-414] | 1.73
YCAGHSQEHIQKCL [Phage-415] | 1.73

Binder | Anti-CD28 Fab (SEQ ID NOs: 202, 203) signal
YCDGHLPEYIFKCL [Phage-416] | 1.73
YCDGHAEEYLWKCL [Phage-418] | 1.73
YCDGHSGVYMWKCL [Phage-420] | 1.73
YCDGHTQAYIQKCL [Phage-421] | 1.73
YCDGHAIQYIGKCL [Phage-422] | 1.72
YCDGHAAEFMMKCL [Phage-423] | 1.72
YCEGHSEMYMKKCL [Phage-425] | 1.72
YCDGHLQIYLWKCL [Phage-426] | 1.72
YCQGHLPVYMEKCL [Phage-427] | 1.72
YCDGHAAEYMDKCL [Phage-428] | 1.72
YCEGHSVQYMQKCL [Phage-429] | 1.71
YCDGHSREYMVKCL [Phage-431] | 1.71
YCDGHLVEYRGKCL [Phage-432] | 1.71
YCDGHLQIYMHKCL [Phage-434] | 1.71
YCDGHLPEYFLKCL [Phage-436] | 1.71
YCDGHSLAYIAKCL [Phage-437] | 1.7
YCAGHTQEYMYKCL [Phage-438] | 1.7
YCEGHLPQYFMKCL [Phage-440] | 1.7
YCDGHSWEYMEKCL [Phage-441] | 1.7
YCEGHLAVYMQKCL [Phage-301] | 1.91
YCEGHSSEYMEKCL [Phage-302] | 1.91
YCDGHLDIYLAKCL [Phage-303] | 1.91
YCEGHSEEYMSKCL [Phage-304] | 1.91
